Assay results reported in US20180084767.

Columns and labels:
Test in all cases: cell_activity
[1] = tested on: ssTTN 3.1 L TALEN (Xanthomonas (engineered)?); settings: as pair with 3.1 R; TALEN mRNA transfected
[2] = tested on: ssTTN 5.1 R TALEN (Xanthomonas (engineered)?); settings: as pair with 5.1 L; TALEN mRNA transfected
[3] = tested on: ssBAG3 4.1 R TALEN (Xanthomonas (engineered)?); settings: as pair with 4.1 L; transfected cells
[4] = tested on: ssTTN 5.1 L TALEN (Xanthomonas (engineered)?); settings: as pair with 5.1 R; TALEN mRNA transfected
[5] = tested on: ssTTN 3.1 R TALEN (Xanthomonas (engineered)?); settings: as pair with 3.1 L; TALEN mRNA transfected
[6] = tested on: ssBAG3 4.1 L TALEN (Xanthomonas (engineered)?); settings: as pair with 4.1 R; transfected cells

## GTCATATCCATAAAAAAC (double strand) [ssTTN 3.1 L site]
[1]
  activity: 60 % editing

## CCAATTCCCAAGTAAT (double strand) [ssTTN 5.1 R site]
[2]
  activity: 44.9 % editing

## TGGTCAAATACTCTTCTAT (double strand) [ssBAG3 4.1 R site]
[3]
  activity: 21.3 % editing

## CAGTCATGCAATTTT (double strand) [ssTTN 5.1 L site]
[4]
  activity: 44.9 % editing

## GTCCTAACATTTTATAT (double strand) [ssTTN 3.1 R site]
[5]
  activity: 60 % editing

## TGAAGGCAAGAAGACAGAC (double strand) [ssBAG3 4.1 L site]
[6]
  activity: 21.3 % editing
